Source: article PMC10397247

Experiments:
Experiment in all cases: two-hybrid library CCNG1;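 note: natural log of median RNA to DNA barcode read ratio; higher means stronger binding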
4H2931-bH = target: T1, 4H2931-bH
T1 chain: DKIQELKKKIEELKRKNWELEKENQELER

4H264-bH = target: T2, 4H264-bH
T2 chain: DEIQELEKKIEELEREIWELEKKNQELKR

4H2859-bH = target: T3, 4H2859-bH
T3 chain: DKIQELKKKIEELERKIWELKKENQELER

4H2444-bH = target: T4, 4H2444-bH
T4 chain: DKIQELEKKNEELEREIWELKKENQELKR

4H730-bH = target: T5, 4H730-bH
T5 chain: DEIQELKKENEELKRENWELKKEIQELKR

4H3364-bH = target: T6, 4H3364-bH
T6 chain: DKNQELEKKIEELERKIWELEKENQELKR

4H3297-bH = target: T7, 4H3297-bH
T7 chain: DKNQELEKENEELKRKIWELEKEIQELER

4H349-bH = target: T8, 4H349-bH
T8 chain: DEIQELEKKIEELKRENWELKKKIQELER

4H2760-bH = target: T9, 4H2760-bH
T9 chain: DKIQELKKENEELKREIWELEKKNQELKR

4H235-bH = target: T10, 4H235-bH
T10 chain: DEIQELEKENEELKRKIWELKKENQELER

4H3381-bH = target: T11, 4H3381-bH
T11 chain: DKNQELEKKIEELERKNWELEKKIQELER

4H264-bA = target: T12, 4H264-bA
T12 chain: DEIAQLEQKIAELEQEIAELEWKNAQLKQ

4H3041-bH = target: T13, 4H3041-bH
T13 chain: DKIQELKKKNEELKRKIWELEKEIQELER

4H949-bH = target: T14, 4H949-bH
T14 chain: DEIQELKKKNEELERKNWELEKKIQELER

4H2518-bH = target: T15, 4H2518-bH
T15 chain: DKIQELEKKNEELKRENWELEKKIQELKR

4H2233-bH = target: T16, 4H2233-bH
T16 chain: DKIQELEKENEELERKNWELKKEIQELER

4H2585-bH = target: T17, 4H2585-bH
T17 chain: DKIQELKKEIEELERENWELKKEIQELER

4H2162-bH = target: T18, 4H2162-bH
T18 chain: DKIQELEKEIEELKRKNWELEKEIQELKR

4H932-bH = target: T19, 4H932-bH
T19 chain: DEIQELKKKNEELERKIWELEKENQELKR

4H56-bH = target: T20, 4H56-bH
T20 chain: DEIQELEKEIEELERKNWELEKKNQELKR

4H2253-bH = target: T21, 4H2253-bH
T21 chain: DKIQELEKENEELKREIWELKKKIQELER

4H796-bH = target: T22, 4H796-bH
T22 chain: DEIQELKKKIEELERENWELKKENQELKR

4H607-bA = target: T23, 4H607-bA
T23 chain: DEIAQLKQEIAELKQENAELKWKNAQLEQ

4H331-bA = target: T24, 4H331-bA
T24 chain: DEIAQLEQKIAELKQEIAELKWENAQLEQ

4H3112-bA = target: T25, 4H3112-bA
T25 chain: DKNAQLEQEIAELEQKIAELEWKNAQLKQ

4H953-bA = target: T26, 4H953-bA
T26 chain: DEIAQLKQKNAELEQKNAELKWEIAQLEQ

4H348-bA = target: T27, 4H348-bA
T27 chain: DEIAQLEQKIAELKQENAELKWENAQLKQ

4H72-bA = target: T28, 4H72-bA
T28 chain: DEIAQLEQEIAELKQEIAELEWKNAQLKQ

4H3354-bA = target: T29, 4H3354-bA
T29 chain: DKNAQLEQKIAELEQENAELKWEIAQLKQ

4H754-bA = target: T30, 4H754-bA
T30 chain: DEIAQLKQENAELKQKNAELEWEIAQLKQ

4H1845-bA = target: T31, 4H1845-bA
T31 chain: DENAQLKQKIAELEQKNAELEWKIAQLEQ

4H568-bA = target: T32, 4H568-bA
T32 chain: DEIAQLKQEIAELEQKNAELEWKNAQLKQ

4H338-bA = target: T33, 4H338-bA
T33 chain: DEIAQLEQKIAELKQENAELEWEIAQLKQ

P9A-bH = target: T34, P9A-bH
T34 chain: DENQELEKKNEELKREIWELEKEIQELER

4H2618-bA = target: T35, 4H2618-bA
T35 chain: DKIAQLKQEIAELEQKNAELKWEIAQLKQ

4H2729-bA = target: T36, 4H2729-bA
T36 chain: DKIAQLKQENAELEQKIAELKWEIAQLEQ

4H687-bA = target: T37, 4H687-bA
T37 chain: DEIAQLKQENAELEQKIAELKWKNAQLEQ

4H492-bN = target: T38, 4H492-bN
T38 chain: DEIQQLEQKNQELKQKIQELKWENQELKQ

4H883-bA = target: T39, 4H883-bA
T39 chain: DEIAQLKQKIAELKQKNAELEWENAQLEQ

4H3855-bA = target: T40, 4H3855-bA
T40 chain: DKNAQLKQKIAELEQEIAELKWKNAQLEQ

4H2442-bA = target: T41, 4H2442-bA
T41 chain: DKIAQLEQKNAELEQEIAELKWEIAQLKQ

4H3782-bA = target: T42, 4H3782-bA
T42 chain: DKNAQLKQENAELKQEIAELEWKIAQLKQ

4H717-bA = target: T43, 4H717-bA
T43 chain: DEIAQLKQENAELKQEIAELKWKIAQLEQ

4H1828-bA = target: T44, 4H1828-bA
T44 chain: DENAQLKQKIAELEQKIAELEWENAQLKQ

4H3185-bA = target: T45, 4H3185-bA
T45 chain: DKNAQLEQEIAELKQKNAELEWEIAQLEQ

4H454-bA = target: T46, 4H454-bA
T46 chain: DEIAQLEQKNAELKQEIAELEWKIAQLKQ

4H4001-bA = target: T47, 4H4001-bA
T47 chain: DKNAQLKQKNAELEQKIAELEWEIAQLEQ

4H2576-bA = target: T48, 4H2576-bA
T48 chain: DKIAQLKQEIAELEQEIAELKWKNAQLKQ

4H797-bA = target: T49, 4H797-bA
T49 chain: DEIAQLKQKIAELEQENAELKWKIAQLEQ

4H967-bA = target: T50, 4H967-bA
T50 chain: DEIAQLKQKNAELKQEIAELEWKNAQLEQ

4H2667-bA = target: T51, 4H2667-bA
T51 chain: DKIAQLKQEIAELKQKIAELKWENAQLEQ

4H908-bA = target: T52, 4H908-bA
T52 chain: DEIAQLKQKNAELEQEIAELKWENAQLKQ

4H918-bA = target: T53, 4H918-bA
T53 chain: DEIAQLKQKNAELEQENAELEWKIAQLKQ

4H3427-bA = target: T54, 4H3427-bA
T54 chain: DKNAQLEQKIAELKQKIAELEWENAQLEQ

4H3189-bA = target: T55, 4H3189-bA
T55 chain: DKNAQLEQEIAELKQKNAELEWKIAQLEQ

4H3843-bA = target: T56, 4H3843-bA
T56 chain: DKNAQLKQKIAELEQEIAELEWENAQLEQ

4H2610-bA = target: T57, 4H2610-bA
T57 chain: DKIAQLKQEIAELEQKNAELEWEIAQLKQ

4H462-bA = target: T58, 4H462-bA
T58 chain: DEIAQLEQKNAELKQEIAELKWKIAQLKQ

4H370-bA = target: T59, 4H370-bA
T59 chain: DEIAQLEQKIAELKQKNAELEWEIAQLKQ

4H3606-bA = target: T60, 4H3606-bA
T60 chain: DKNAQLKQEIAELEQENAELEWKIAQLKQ

4H1446-bA = target: T61, 4H1446-bA
T61 chain: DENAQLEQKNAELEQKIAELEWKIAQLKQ

4H2697-bA = target: T62, 4H2697-bA
T62 chain: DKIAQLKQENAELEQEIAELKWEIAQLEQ

DKIQELEKEIEELKRKNWELEKEIQELKR [4H2162-bH]
interaction score (4H2931-bH): 0.798 | interaction score (4H264-bH): 0.0138 | interaction score (4H2859-bH): 0.783 | interaction score (4H2444-bH): 0.28 | interaction score (4H730-bH): -1.99 | interaction score (4H3364-bH): 0.498 | interaction score (4H3297-bH): 0.0958 | interaction score (4H349-bH): 0.54 | interaction score (4H2760-bH): 0.202 | interaction score (4H235-bH): 0.377 | interaction score (4H3381-bH): 0.0641 | interaction score (4H264-bA): 0.1 | interaction score (4H3041-bH): 0.641 | interaction score (4H949-bH): -1.64 | interaction score (4H2518-bH): 1 | interaction score (4H2233-bH): 0.284 | interaction score (4H2585-bH): 0.942 | interaction score (4H2162-bH): 0.161 | interaction score (4H932-bH): -0.531 | interaction score (4H56-bH): 0.668 | interaction score (4H2253-bH): -0.234 | interaction score (4H796-bH): -0.188

DENAQLKQKIAELEQKIAELEWENAQLKQ [4H1828-bA]
interaction score (4H607-bA): -0.523 | interaction score (4H331-bA): -0.739 | interaction score (4H3112-bA): 1.15 | interaction score (4H953-bA): -0.126 | interaction score (4H348-bA): -0.144 | interaction score (4H72-bA): -0.902 | interaction score (4H3354-bA): 0.0682 | interaction score (4H754-bA): -1.2 | interaction score (4H1845-bA): -0.511 | interaction score (4H568-bA): 0.727 | interaction score (4H338-bA): -1.89 | interaction score (P9A-bH): 0.475 | interaction score (4H2618-bA): 0.132 | interaction score (4H2729-bA): -0.137 | interaction score (4H687-bA): -0.0353 | interaction score (4H492-bN): -2.71 | interaction score (4H883-bA): -0.928 | interaction score (4H3855-bA): -0.259 | interaction score (4H2442-bA): 0.499 | interaction score (4H3782-bA): 0.85 | interaction score (4H717-bA): -1.09 | interaction score (4H1828-bA): 0.663 | interaction score (4H3185-bA): -0.351 | interaction score (4H454-bA): -1.06 | interaction score (4H4001-bA): -0.562 | interaction score (4H2576-bA): 0.0647 | interaction score (4H797-bA): -0.153 | interaction score (4H967-bA): -0.0426 | interaction score (4H2667-bA): 0.0606 | interaction score (4H908-bA): -0.276 | interaction score (4H918-bA): -0.412 | interaction score (4H3427-bA): 0.974

DENAQLEQKNAELEQKIAELEWKIAQLKQ [4H1446-bA]
interaction score (4H607-bA): -0.535 | interaction score (4H331-bA): 1.79 | interaction score (4H3112-bA): 0.505 | interaction score (4H3189-bA): -0.621 | interaction score (4H953-bA): -0.416 | interaction score (4H3843-bA): 2.01 | interaction score (4H72-bA): 1.16 | interaction score (4H3354-bA): -0.413 | interaction score (4H2610-bA): -0.647 | interaction score (4H754-bA): -0.817 | interaction score (4H1845-bA): -0.389 | interaction score (4H568-bA): -0.418 | interaction score (4H338-bA): -0.241 | interaction score (4H462-bA): -0.194 | interaction score (4H2618-bA): 0.00602 | interaction score (4H370-bA): 0.183 | interaction score (4H2729-bA): 1.08 | interaction score (4H687-bA): -0.607 | interaction score (4H883-bA): 0.0122 | interaction score (4H3855-bA): 0.209 | interaction score (4H2442-bA): -1.04 | interaction score (4H3782-bA): 0.586 | interaction score (4H717-bA): -0.295 | interaction score (4H3606-bA): 0.144 | interaction score (4H1446-bA): 0.569 | interaction score (4H1828-bA): -0.523 | interaction score (4H3185-bA): -0.0587 | interaction score (4H454-bA): -0.131 | interaction score (4H2697-bA): -0.0949 | interaction score (4H4001-bA): 1.86 | interaction score (4H2576-bA): 1.12 | interaction score (4H797-bA): -1.42 | interaction score (4H967-bA): -0.635 | interaction score (4H2667-bA): 0.0853 | interaction score (4H908-bA): -0.405 | interaction score (4H918-bA): -0.0235 | interaction score (4H3427-bA): 0.256
